Target: neutrophil elastase (HNE) (Homo sapiens, UniProt P08246 P08246:30-267)
Test: inhibition; blended ligand (end not specified for Ki); chromogenic substrate, 10 nM elastase, 2 mM MgCl2, 150 mM NaCl, 25 C; >50% inhibition at 70 nM for 3' conjugate
Description: The assay for elastase inhibition is based on the use of a chromogenic tetrapeptide substrate. […] The rate of p-nitroanilide generation in the absence of inhibitor was used as the control.

Chain of neutrophil elastase (HNE) (P08246 30-267, one chain of several): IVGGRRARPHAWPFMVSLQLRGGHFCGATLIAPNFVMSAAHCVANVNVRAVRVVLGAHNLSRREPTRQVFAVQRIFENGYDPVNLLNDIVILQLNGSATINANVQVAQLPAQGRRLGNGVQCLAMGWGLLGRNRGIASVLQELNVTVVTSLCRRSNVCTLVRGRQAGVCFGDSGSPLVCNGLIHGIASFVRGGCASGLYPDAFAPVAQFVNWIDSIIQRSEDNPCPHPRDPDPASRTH

B1: DNA-17 3'-end peptide conjugate (ssDNA)
DNA: TAGCGATACTGCGTGGGTTGGGGCGGGTAGGGCCAGCAGTCTCGTGCGGTACTTGAGCA
modifications: 3' four 18-atom ethylene glycol spacers and thiol coupled to N-methoxysuccinyl-Ala-Ala-Pro-Val-chloromethyl ketone
- Ki: 30 nM

— patent US5683867, “Systematic evolution of ligands by exponential enrichment: blended SELEX” (NeXstar Pharmaceuticals, Inc.)
